Patent US20040058368A1 (PENN STATE RESEARCH FOUNDATION, published 2004)

B1: Gal80p (other, Saccharomyces cerevisiae (yeast), UniProt P04387 1-435, looked up)
chain: MDYNKRSSVSTVPNAAPIRVGFVGLNAAKGWAIKTHYPAILQLSSQFQITALYSPKIETSIATIQRLKLSNATAFPTLESFASSSTIDMIVIAIQVASHYEVVMPLLEFSKNNPNLKYLFVEWALACSLDQAESIYKAAAERGVQTIISLQGRKSPYILRAKELISQGYIGDINSIEIAGNGGWYGYERPVKSPKYIYEIGNGVDLVTTTFGHTIDILQYMTSSYFSRINAMVFNNIPEQELIDERGNRLGQRVPKTVPDHLLFQGTLLNGNVPVSCSFKGGKPTKKFTKNLVIDIHGTKGDLKLEGDAGFAEISNLVLYYSGTRANDFPLANGQQAPLDPGYDAGKEIMEVYHLRNYNAIVGNIHRLYQSISDFHFNTKKIPELPSQFVMQGFDFEGFPTLMDALILHRLIESVYKSNMMGSTLNVSNISHYSL
notes: Endogenous yeast protein, inside the cells; also called Gal80 protein
B2: Membrane targeted transcriptional activation domain of Gal4p (Myr-Gal4AD) (other, Saccharomyces cerevisiae (yeast))
chain: MGCTVSTQTIGDESDPPLTPSALFGGANFNQSGNIADSSLSFTFTNSSNGPNLITTQTNSQALSQPIASSNVHDNFMNNEITASKIDDGNNSKPLSPGWTDQTAYNAFGITTGMFNTTTMDDVYNYLFDDEDTPPNPKKE
modifications: N-myristoylation signal at the N terminus
notes: range 758-881; also called membrane-localized Gal4AD

How the values were obtained:
[1] = target: T1, wild type Gal3p (Saccharomyces cerevisiae (yeast), UniProt P13045 1-520); test: cell-based or functional assay
T1 sequence (looked up): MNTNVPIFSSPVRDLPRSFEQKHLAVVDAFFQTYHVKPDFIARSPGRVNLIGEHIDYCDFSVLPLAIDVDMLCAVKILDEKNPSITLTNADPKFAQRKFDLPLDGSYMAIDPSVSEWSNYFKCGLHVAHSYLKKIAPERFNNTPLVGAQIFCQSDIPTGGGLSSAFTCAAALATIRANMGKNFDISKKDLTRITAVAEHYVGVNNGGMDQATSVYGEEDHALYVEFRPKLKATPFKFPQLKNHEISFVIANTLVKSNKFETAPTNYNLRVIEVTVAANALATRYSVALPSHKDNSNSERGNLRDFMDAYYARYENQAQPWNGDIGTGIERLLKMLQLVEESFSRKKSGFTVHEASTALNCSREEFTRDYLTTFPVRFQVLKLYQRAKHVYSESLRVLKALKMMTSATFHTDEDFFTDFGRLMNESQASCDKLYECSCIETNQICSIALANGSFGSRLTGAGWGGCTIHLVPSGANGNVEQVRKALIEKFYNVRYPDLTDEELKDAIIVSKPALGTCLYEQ

[2] = target: T2, Gal4p (Saccharomyces cerevisiae (yeast), UniProt P04386 1-881); test: formaldehyde cross-linking and chromatin immunoprecipitation in yeast, un-induced against galactose-induced
T2 construct: Endogenous protein of wild type Sc723 cells, cross-linked in vivo
Description: Fold enrichments are indicated (enrichment). […] FIG. 3C illustrates quantitation of promoter occupancy by Gal4p, Gal80p and Gal3p in un-induced and induced cells. Values are means (±standard deviation) of at least five experiments carried out with two sets of independently prepared chromatin samples.
Chromatin immunoprecipitations were performed as described by Braunstein et al., 1993, Genes Dev. 7: 592-604 and Kuras et al. 1999, Nature 399: 609-613. Briefly, wild type Sc723 cells (Blank et al., 1997, Mol. Cell. Biol. 17: 2566-2575) were grown to early exponential growth phase (as measured by absorbance at 600 nm˜0.4) in 250 mL yeast extract-peptone medium containing 2% glycerol, 3% lactic acid, and 0.05% glucose (-galactose, un-induced). For galactose-induced cultures, galactose was added to the un-induced cultures to a final concentration of 2% and the cultures were incubated for an additional 20 minutes. Formaldehyde was added to a final concentration of 1%, the cultures were incubated for 20 minutes at room temperature, and glycine was added to a final concentration of 300 mM. All the following steps were carried out at […]. Cells were washed twice with TBS (20 mM Tris-HCl, 150 mM NaCl, pH 8.0), resuspended in 1 mL lysis buffer (50 mM Tris-HCl pH 8.0, 10 mM EDTA, 1% SDS, 1 mM PMSF), and disrupted by vortexing with glass beads. […]

[3] = target: B1; test: UASGAL-HIS3 reporter growth assay in yeast without galactose
From the text: FIG. 6. (Yeast cells) Membrane targeted transcriptional activation domain of Gal4p (Gal4AD; amino acid 758-881) activates HIS3 reporter gene expression. A yeast strain harboring a UASGAL-HIS3 reporter was transformed with Myr-Gal4AD. […] Transformed cells were spotted on synthetic medium plates lacking histidine, tryptophan and uracil and containing 3% glycerol/2% lactic acid as carbon source.

[4] = target: T3, Gal80-TBP (Saccharomyces cerevisiae (yeast), UniProt P04387 1-435; P13393 1-240, limits assumed); test: 80-Trap HIS3 reporter growth assay in yeast
T3 construct: The junction and any tags are not described
T3 sequence (looked up): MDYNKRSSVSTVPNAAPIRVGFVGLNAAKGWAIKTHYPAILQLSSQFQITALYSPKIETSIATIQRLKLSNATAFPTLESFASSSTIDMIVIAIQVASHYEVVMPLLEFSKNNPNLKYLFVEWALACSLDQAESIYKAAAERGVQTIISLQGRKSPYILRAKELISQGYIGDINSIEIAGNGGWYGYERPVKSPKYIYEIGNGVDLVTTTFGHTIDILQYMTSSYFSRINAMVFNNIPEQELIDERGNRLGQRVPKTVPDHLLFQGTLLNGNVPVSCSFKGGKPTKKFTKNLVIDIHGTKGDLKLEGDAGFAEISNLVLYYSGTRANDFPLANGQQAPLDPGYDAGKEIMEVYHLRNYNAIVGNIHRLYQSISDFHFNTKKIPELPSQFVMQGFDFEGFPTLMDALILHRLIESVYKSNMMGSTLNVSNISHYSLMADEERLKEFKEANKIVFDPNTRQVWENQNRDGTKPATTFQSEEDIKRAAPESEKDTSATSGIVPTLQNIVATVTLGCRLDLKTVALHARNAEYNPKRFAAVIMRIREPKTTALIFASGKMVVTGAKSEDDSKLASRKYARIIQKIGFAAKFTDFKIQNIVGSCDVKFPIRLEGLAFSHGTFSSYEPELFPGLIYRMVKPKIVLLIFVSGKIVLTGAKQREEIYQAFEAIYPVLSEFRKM
From the text: FIG. 5. (Yeast cells) A membrane-targeted transcription factor activates GAL gene expression through interaction with Gal80-TBP. Galactose-independent HIS3 reporter (expression as a result of Gal80-TBP and Myr-TAF145 interaction; lane 1). Lane 2 illustrates the positive control: interaction between two proteins known to interact: Fpr1 (in fusion with Gal80) and Hom3 (fused to the Myr sequence and CFP). Lane 3 is the negative control with Gal80-TBP tested against just the Myr sequence. The nutrient agar plate used here contained 3% glycerol/2% lactic acid as carbon source and lacked histidine, tryptophan and uracil.

For B1, the “MEL1 gene expression level” value [1] was 2 fold reduction and the binding result [2] was “binds”.

B2: binds [3].

MGCTVSTQTIGDESDP (N-myristoylation signal) [Myr sequence]: no binding [4].
